The values that follow are results of earlier work, collected in US20040209344A1, “Crystal structure of angiotensin-converting enzyme-related carboxypeptidase” (priority 2002, published 2004).

Entries after “also recorded” stand apart in the source; their conditions may differ. Where two headings read alike, the source gives them in different places.

The target of data set [1] is T1, ACE2 (Homo sapiens, UniProt Q9BYF1).
Target sequence in this assay (Q9BYF1 18-805): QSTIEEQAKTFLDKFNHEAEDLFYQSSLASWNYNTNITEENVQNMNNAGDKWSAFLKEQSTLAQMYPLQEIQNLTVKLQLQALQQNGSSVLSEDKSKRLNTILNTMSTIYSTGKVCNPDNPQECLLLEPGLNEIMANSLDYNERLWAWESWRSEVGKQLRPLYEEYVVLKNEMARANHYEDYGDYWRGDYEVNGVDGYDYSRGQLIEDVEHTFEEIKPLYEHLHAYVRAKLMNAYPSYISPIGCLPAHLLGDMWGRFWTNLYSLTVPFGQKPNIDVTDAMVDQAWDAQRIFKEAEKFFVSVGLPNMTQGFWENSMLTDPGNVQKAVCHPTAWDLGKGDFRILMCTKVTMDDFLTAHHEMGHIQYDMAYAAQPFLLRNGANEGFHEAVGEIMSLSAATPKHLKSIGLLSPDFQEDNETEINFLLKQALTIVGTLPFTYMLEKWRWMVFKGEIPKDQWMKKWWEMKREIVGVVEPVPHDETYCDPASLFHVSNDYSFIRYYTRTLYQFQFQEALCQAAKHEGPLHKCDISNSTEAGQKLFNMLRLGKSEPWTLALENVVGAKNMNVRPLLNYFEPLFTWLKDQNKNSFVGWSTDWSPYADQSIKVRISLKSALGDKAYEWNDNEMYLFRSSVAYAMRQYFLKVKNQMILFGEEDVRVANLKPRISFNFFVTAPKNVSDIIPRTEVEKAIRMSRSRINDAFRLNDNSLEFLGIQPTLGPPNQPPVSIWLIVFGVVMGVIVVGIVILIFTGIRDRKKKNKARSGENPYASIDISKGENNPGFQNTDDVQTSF
Data set [2] concerns the target somatic ACE D991 to E mutant (Homo sapiens, UniProt P12821, D1020E). Particulars: mutation of D991 to E in somatic ACE; Williams et al.
Data set [3] addresses T1, ACE2. Also on record: made in house; host or cells: SF9 insect cells, baculovirus (pBac Pak9 vector), secreted into the culture supernatant. Particulars: Tipnis et al.
Target sequence in this assay (Q9BYF1 19-740): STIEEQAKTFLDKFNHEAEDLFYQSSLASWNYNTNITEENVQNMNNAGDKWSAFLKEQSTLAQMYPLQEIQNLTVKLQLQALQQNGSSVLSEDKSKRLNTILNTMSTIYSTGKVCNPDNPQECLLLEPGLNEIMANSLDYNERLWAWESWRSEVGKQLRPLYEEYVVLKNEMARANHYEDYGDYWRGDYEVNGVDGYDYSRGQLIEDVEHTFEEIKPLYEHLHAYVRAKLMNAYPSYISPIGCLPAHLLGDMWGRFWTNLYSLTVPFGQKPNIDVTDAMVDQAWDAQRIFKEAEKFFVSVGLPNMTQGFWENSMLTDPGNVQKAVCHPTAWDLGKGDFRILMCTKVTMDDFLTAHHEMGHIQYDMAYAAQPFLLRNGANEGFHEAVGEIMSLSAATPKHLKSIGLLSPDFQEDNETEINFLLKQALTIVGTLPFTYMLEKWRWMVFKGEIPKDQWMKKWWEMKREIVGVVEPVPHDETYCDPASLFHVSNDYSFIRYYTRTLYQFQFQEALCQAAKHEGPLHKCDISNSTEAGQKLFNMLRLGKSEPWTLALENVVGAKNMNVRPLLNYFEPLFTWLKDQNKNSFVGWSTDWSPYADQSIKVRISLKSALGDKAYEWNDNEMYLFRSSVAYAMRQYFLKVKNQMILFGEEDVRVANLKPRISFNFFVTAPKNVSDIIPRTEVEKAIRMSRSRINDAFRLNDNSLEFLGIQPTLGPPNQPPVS

somatic ACE D991 to E mutant, sequence (P12821 30-1306 D1020E): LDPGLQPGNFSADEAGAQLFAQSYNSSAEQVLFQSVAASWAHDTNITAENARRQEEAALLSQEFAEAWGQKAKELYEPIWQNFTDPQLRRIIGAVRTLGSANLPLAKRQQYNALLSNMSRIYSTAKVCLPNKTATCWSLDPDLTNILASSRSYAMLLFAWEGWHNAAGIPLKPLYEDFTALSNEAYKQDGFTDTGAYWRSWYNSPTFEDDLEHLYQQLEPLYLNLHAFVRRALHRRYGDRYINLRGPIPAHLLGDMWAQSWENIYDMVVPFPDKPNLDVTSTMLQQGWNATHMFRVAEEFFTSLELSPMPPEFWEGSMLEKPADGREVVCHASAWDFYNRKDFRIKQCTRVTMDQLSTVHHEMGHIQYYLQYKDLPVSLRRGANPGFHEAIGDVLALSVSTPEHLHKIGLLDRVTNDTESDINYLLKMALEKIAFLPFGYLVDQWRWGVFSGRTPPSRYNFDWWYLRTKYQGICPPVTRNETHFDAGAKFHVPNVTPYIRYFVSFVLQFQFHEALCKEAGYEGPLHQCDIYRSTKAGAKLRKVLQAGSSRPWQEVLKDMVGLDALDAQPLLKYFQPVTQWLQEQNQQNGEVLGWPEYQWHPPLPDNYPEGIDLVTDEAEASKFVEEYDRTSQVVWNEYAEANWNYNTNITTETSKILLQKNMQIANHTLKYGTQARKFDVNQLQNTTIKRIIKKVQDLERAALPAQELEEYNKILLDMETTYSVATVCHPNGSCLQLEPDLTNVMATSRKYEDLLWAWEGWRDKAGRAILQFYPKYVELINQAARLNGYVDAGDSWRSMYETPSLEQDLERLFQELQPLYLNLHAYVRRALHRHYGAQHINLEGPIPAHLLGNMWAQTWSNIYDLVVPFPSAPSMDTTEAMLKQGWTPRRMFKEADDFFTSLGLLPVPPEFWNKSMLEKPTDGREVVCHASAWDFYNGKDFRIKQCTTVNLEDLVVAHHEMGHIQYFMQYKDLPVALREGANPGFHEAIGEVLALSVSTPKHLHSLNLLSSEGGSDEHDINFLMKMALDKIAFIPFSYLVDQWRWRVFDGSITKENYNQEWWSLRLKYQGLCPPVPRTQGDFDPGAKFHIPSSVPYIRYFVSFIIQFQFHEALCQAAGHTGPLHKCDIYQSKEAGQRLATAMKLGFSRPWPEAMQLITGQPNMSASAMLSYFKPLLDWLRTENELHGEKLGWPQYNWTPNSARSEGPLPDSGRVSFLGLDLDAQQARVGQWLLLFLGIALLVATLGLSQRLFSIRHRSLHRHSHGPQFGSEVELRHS

“Angiotensin II: vasoconstrictor peptide DRVYIHPF; SEQ ID NO: 2”: the “activity as peptide substrate for ACE2” value in data set [1] (Vickers et al.) was “best in vitro peptide substrates”.
With Dynorphin A 1-13, the “activity as peptide substrate for ACE2” value in data set [1] (Vickers et al.) is listed as “best in vitro peptide substrates”.
des-Arg^9 bradykinin: in data set [1] (Vickers et al.), the “activity as peptide substrate for ACE2” value was “best in vitro peptide substrates”.
Turning to “Met-enkephalin: peptide YGGFM; SEQ ID NO: 9”, in data set [1] (Vickers et al.), the “activity as peptide substrate for ACE2” value is “inactive”.
On to “Angiotensin 1-9: peptide DRVYIHPFH; SEQ ID NO: 3”, for which the “activity as peptide substrate for ACE2” value in data set [1] (Vickers et al.) is “inactive”.
In the case of “Leu-enkephalin: peptide YGGFL; SEQ ID NO: 8”, the “activity as peptide substrate for ACE2” value in data set [1] (Vickers et al.) is “inactive”.
For `C[C@H](N[C@@H](CCc1ccccc1)C(=O)O)C(=O)N1[C@H](C(=O)O)C[C@H]2CCCC[C@@H]21` [trandolaprilat], the “decrease in affinity for the inhibitor” value in data set [2] is listed as “about 8 fold”.
`C[C@H](CS)C(=O)N1CCC[C@H]1C(=O)O` [captopril]: the “inhibition of ACE2 by ACE inhibitors” value in data set [3] was “did not inhibit; also recorded: not active”.
As to Apelin 13, the “activity as peptide substrate for ACE2” value in data set [1] is recorded as “best in vitro peptide substrates”.
For “Angiotensin 1-5: peptide DRVYI; SEQ ID NO: 10”, in data set [1] (Vickers et al.), the “activity as peptide substrate for ACE2” value is “inactive”.
